Source: patent US20230357348A1 (AstraZeneca / MedImmune, published 2023)
Starred links: 1 amine or outer side, 2 acyl side, 3 side chain; linkers in the order of their positions; H or OH if unused. Non-standard residues stand in square brackets, D forms with d. Groups on a side chain read outwards from the residue. No end group written: not given here. *: point of attachment. C20 diacid = O=C(O)CCCCCCCCCCCCCCCCCCC(=O)*; C18 diacid = O=C(O)CCCCCCCCCCCCCCCCC(=O)*; γGlu = O=C(O)[C@H](CCC(=O)[*:2])N[*:1]; αMeF = C[C@](N)(Cc1ccccc1)C(=O)O; AEEA = NCCOCCOCC(=O)O; Aib = CC(C)(N)C(=O)O

Experiments:
[1] = target: human GLP-1 receptor (hGLP-1R) (human, UniProt P43220 24-463); experiment: cell-based or functional assay
[2] = target: human glucagon receptor (hGCGR) (human, UniProt P47871 26-477); experiment: cell-based or functional assay
human glucagon receptor (hGCGR), sequence (P47871 26-477): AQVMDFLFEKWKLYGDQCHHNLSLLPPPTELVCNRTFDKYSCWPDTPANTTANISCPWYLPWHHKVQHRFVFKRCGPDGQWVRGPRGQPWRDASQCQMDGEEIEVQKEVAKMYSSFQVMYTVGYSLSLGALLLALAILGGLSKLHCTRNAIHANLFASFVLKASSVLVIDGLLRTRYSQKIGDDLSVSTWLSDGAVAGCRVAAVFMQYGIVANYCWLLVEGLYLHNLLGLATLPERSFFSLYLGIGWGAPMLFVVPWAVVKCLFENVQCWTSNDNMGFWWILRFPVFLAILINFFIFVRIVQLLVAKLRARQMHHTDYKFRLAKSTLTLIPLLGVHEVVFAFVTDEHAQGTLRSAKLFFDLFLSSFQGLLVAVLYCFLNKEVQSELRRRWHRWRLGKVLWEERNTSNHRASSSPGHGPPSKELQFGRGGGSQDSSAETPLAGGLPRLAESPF

hGLP-1R EC50 (pM) [1] | hGluc-R EC50 (pM) [2] | Binder
65.5 pM | 164 pM | H[Aib]QGTFTSDVSK[αMeF]LDTK([AEEA-AEEA-γGlu-C18 diacid])RARDFVQWLL[Aib]TE-OH (N-terminus assumed; SMILES CC(C)C[C@H](NC(=O)[C@H](Cc1c[nH]c2ccccc12)NC(=O)[C@H](CCC(N)=O)NC(=O)[C@@H](NC(=O)[C@H](Cc1ccccc1)NC(=O)[C@H](CC(=O)O)NC(=O)[C@H](CCCNC(=N)N)NC(=O)[C@H](C)NC(=O)[C@H](CCCNC(=N)N)NC(=O)[C@H](CCCCNC(=O)COCCOCCNC(=O)COCCOCCNC(=O)CC[C@H](NC(=O)CCCCCCCCCCCCCCCCC(=O)O)C(=O)O)NC(=O)[C@@H](NC(=O)[C@H](CC(=O)O)NC(=O)[C@H](CC(C)C)NC(=O)[C@](C)(Cc1ccccc1)NC(=O)[C@H](CCCCN)NC(=O)[C@H](CO)NC(=O)[C@@H](NC(=O)[C@H](CC(=O)O)NC(=O)[C@H](CO)NC(=O)[C@@H](NC(=O)[C@H](Cc1ccccc1)NC(=O)[C@@H](NC(=O)CNC(=O)[C@H](CCC(N)=O)NC(=O)C(C)(C)NC(=O)[C@@H](N)Cc1c[nH]cn1)[C@@H](C)O)[C@@H](C)O)C(C)C)[C@@H](C)O)C(C)C)C(=O)N[C@@H](CC(C)C)C(=O)NC(C)(C)C(=O)N[C@H](C(=O)N[C@@H](CCC(=O)O)C(=O)O)[C@@H](C)O) [Peptide 487]
420 pM | 166 pM | H[Aib]QGTFTSDVSK[αMeF]LDLK([AEEA-AEEA-γGlu-C20 diacid])RAQDFVRWLL[Aib]E-OH (N-terminus assumed; SMILES CC(C)C[C@H](NC(=O)[C@H](CC(=O)O)NC(=O)[C@H](CC(C)C)NC(=O)[C@](C)(Cc1ccccc1)NC(=O)[C@H](CCCCN)NC(=O)[C@H](CO)NC(=O)[C@@H](NC(=O)[C@H](CC(=O)O)NC(=O)[C@H](CO)NC(=O)[C@@H](NC(=O)[C@H](Cc1ccccc1)NC(=O)[C@@H](NC(=O)CNC(=O)[C@H](CCC(N)=O)NC(=O)C(C)(C)NC(=O)[C@@H](N)Cc1c[nH]cn1)[C@@H](C)O)[C@@H](C)O)C(C)C)C(=O)N[C@@H](CCCCNC(=O)COCCOCCNC(=O)COCCOCCNC(=O)CC[C@H](NC(=O)CCCCCCCCCCCCCCCCCCC(=O)O)C(=O)O)C(=O)N[C@@H](CCCNC(=N)N)C(=O)N[C@@H](C)C(=O)N[C@@H](CCC(N)=O)C(=O)N[C@@H](CC(=O)O)C(=O)N[C@@H](Cc1ccccc1)C(=O)N[C@H](C(=O)N[C@@H](CCCNC(=N)N)C(=O)N[C@@H](Cc1c[nH]c2ccccc12)C(=O)N[C@@H](CC(C)C)C(=O)N[C@@H](CC(C)C)C(=O)NC(C)(C)C(=O)N[C@@H](CCC(=O)O)C(=O)O)C(C)C) [Peptide 486]
219 pM | 90.4 pM | H[Aib]QGTFTSDVSK[αMeF]LDTK([AEEA-AEEA-γGlu-C20 diacid])RAQDFVQWLL[Aib]E-NH2 (N-terminus assumed; SMILES CC(C)C[C@H](NC(=O)[C@H](Cc1c[nH]c2ccccc12)NC(=O)[C@H](CCC(N)=O)NC(=O)[C@@H](NC(=O)[C@H](Cc1ccccc1)NC(=O)[C@H](CC(=O)O)NC(=O)[C@H](CCC(N)=O)NC(=O)[C@H](C)NC(=O)[C@H](CCCNC(=N)N)NC(=O)[C@H](CCCCNC(=O)COCCOCCNC(=O)COCCOCCNC(=O)CC[C@H](NC(=O)CCCCCCCCCCCCCCCCCCC(=O)O)C(=O)O)NC(=O)[C@@H](NC(=O)[C@H](CC(=O)O)NC(=O)[C@H](CC(C)C)NC(=O)[C@](C)(Cc1ccccc1)NC(=O)[C@H](CCCCN)NC(=O)[C@H](CO)NC(=O)[C@@H](NC(=O)[C@H](CC(=O)O)NC(=O)[C@H](CO)NC(=O)[C@@H](NC(=O)[C@H](Cc1ccccc1)NC(=O)[C@@H](NC(=O)CNC(=O)[C@H](CCC(N)=O)NC(=O)C(C)(C)NC(=O)[C@@H](N)Cc1c[nH]cn1)[C@@H](C)O)[C@@H](C)O)C(C)C)[C@@H](C)O)C(C)C)C(=O)N[C@@H](CC(C)C)C(=O)NC(C)(C)C(=O)N[C@@H](CCC(=O)O)C(N)=O) [Peptide 485]
